Biological target: T1, TRIM24 PHD-Bromo C840W (human, UniProt O15164 824-1006, C840W)
T1 sequence: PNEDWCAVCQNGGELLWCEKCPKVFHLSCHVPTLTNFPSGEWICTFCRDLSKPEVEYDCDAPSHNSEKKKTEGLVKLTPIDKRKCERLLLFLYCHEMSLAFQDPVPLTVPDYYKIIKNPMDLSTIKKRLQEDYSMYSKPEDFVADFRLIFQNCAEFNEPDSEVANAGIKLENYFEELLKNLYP
Assay: ITC

Binder: ARTKQTARKSTGGKA [H3(1–15)K4 peptide]
- Kd: > 400 µM

Reference: paper PMC3058826 (Nature, 2010)
